Measurements from publication PMC4144951, “Dissecting the Functional Role of the N-Terminal Domain of the Human Small Heat Shock Protein HSPB6” (PLoS ONE, 2014).
Substitutions are numbered along the chain they refer to. Numbers in names are those of the source. Each block holds one molecule with its values, some of them ahead of it.

Legend:
HSPB6 Δ31–40 (human) = HSPB6 Δ31–40 (human) (UniProt O14558); assay: SEC-coupled SAXS; inline HPLC, Shodex KW404-4F, 20°C, 20 mM HEPES, 150 mM NaCl, pH 7.4, 2.5 mM DTT; 75 µl of 5 mg/ml HSPB6 or equivalent molarity loaded (ΔN11: 111 µl of 3.37 mg/ml); mass at the peak maximum from I0 and Porod volume; number of subunits of the oligomer
HSPB6 Δ31–35 (human) [1] = target: HSPB6 Δ31–35 (human) (UniProt O14558); assay: SEC; data not shown; three loaded concentrations, no larger oligomeric species seen; size of the oligomer (dimer)
HSPB6 Δ31–35 (human) [2] = target: HSPB6 Δ31–35 (human) (UniProt O14558); assay: SEC-coupled SAXS; inline HPLC, Shodex KW404-4F, 20°C, 20 mM HEPES, 150 mM NaCl, pH 7.4, 2.5 mM DTT; 75 µl of 5 mg/ml HSPB6 or equivalent molarity loaded (ΔN11: 111 µl of 3.37 mg/ml); mass at the peak maximum from I0 and Porod volume; number of subunits of the oligomer
[3] = target: the molecule itself; assay: as above
[4] = target: human recombinant insulin (human, UniProt P01308 25-54; P01308 90-110); assay: cell-based or functional assay
[5] = target: the molecule itself; assay: SEC; 100 µl at 2.5, 5 and 10 mg/ml on Superdex 200 10/300 GL, 4°C, 25 mM HEPES pH 7.5, 150 mM NaCl, 2.5 mM DTT; apparent MW from column calibration; the shift of the peak with loaded concentration is read as self-association of the dimers with each other (dimer to higher species)
[6] = target: T1, human HSPB6, wild type, full length (human), O14558; assay: as above; details: remark: other sources report otherwise
T1 chain: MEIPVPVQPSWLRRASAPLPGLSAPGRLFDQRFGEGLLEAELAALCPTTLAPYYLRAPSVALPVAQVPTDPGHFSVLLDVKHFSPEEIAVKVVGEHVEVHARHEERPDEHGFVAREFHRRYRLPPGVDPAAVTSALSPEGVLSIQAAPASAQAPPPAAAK

[7] = target: T1, human HSPB6, wild type, full length …; assay: SEC-coupled SAXS; inline HPLC, Shodex KW404-4F, 20°C, 20 mM HEPES, 150 mM NaCl, pH 7.4, 2.5 mM DTT; 75 µl of 5 mg/ml HSPB6 or equivalent molarity loaded (ΔN11: 111 µl of 3.37 mg/ml); mass at the peak maximum from I0 and Porod volume; number of subunits of the oligomer; details: remark: other sources report otherwise
[8] = target: T1, human HSPB6, wild type, full length …; assay: SEC; data not shown; three loaded concentrations, no larger oligomeric species seen; size of the oligomer (dimer); details: remark: other sources report otherwise
[9] = target: the molecule itself; assay: SEC; 100 µl at 2.5, 5 and 10 mg/ml on Superdex 200 10/300 GL, 4°C, 25 mM HEPES pH 7.5, 150 mM NaCl, 2.5 mM DTT; apparent MW from column calibration; the shift of the peak with loaded concentration is read as self-association of the dimers with each other (dimer to higher species); remark: listed apart in the source
[10] = target: the molecule itself; assay: SEC; data not shown; three loaded concentrations, no larger oligomeric species seen; size of the oligomer (dimer)

Sequence of human recombinant insulin (P01308 25-54, chain 1 of 2): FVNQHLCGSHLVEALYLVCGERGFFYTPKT
Sequence of human recombinant insulin (P01308 90-110, chain 2 of 2): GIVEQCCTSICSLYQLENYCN

B5: HSPB6 Δ61–70 (natural protein, human, UniProt O14558 1-160, looked up)
chain: MEIPVPVQPSWLRRASAPLPGLSAPGRLFDQRFGEGLLEAELAALCPTTLAPYYLRAPSVPGHFSVLLDVKHFSPEEIAVKVVGEHVEVHARHEERPDEHGFVAREFHRRYRLPPGVDPAAVTSALSPEGVLSIQAAPASAQAPPPAAAK
notes: HSPB6, human, full-length protein with residues 61-70 deleted; By SAXS closer to a tetramer than to a dimer; source: E. coli NiCo21 (DE3) with pRARE2, purified (subtractive IMAC, anion exchange, SEC); not shown: SUMO, N-terminal, cleaved
stoichiometry N [3]: 3.5 subunits
concentration dependence of apparent MW [5]: 3.4 kDa/(mg/ml)

B6: HSPB6 ΔN11 (domain or fragment, human, UniProt O14558 12-160, looked up)
chain: LRRASAPLPGLSAPGRLFDQRFGEGLLEAELAALCPTTLAPYYLRAPSVALPVAQVPTDPGHFSVLLDVKHFSPEEIAVKVVGEHVEVHARHEERPDEHGFVAREFHRRYRLPPGVDPAAVTSALSPEGVLSIQAAPASAQAPPPAAAK
notes: HSPB6, human, without its first 11 residues (ΔN10 begins with the sole tryptophan; ΔN11 removes it too); Prone to aggregate; could not be concentrated above about 4-5 mg/ml; also called ΔN11-construct; source: E. coli NiCo21 (DE3) with pRARE2, purified (subtractive IMAC, anion exchange, SEC); not shown: SUMO, N-terminal, cleaved
stoichiometry N [3]: 2.5 subunits

B8: HSPB6 F33A (natural protein, human, UniProt O14558 1-160, looked up)
chain: T1 chain with F33A
notes: HSPB6, human, full-length protein with the point mutation F33A; source: E. coli NiCo21 (DE3) with pRARE2, purified (subtractive IMAC, anion exchange, SEC); not shown: SUMO, N-terminal, cleaved
stoichiometry N [3]: 2.3 subunits

B9: HSPB6 Q31L (natural protein, human, UniProt O14558 1-160, looked up)
chain: T1 chain with Q31L
notes: HSPB6, human, full-length protein with the point mutation Q31L; source: E. coli NiCo21 (DE3) with pRARE2, purified (subtractive IMAC, anion exchange, SEC); not shown: SUMO, N-terminal, cleaved
stoichiometry N [3]: 4.3 subunits
concentration dependence of apparent MW [5]: 1.87 kDa/(mg/ml)

B10: HSPB6 F33Y (natural protein, human, UniProt O14558 1-160, looked up)
chain: T1 chain with F33Y
notes: HSPB6, human, full-length protein with the point mutation F33Y; source: E. coli NiCo21 (DE3) with pRARE2, purified (subtractive IMAC, anion exchange, SEC); not shown: SUMO, N-terminal, cleaved
stoichiometry N [3]: 1.9 subunits

B11: HSPB6 Q31A (natural protein, human, UniProt O14558 1-160, looked up)
chain: T1 chain with Q31A
notes: HSPB6, human, full-length protein with the point mutation Q31A; Mixture of dimers and what appear to be tetramers; source: E. coli NiCo21 (DE3) with pRARE2, purified (subtractive IMAC, anion exchange, SEC); not shown: SUMO, N-terminal, cleaved
stoichiometry N [3]: 4.2 subunits
stoichiometry N [9]: ~4
concentration dependence of apparent MW [5]: 1.1 kDa/(mg/ml)

B12: HSPB6 Δ36–40 (natural protein, human, UniProt O14558 1-160, looked up)
chain: MEIPVPVQPSWLRRASAPLPGLSAPGRLFDQRFGEELAALCPTTLAPYYLRAPSVALPVAQVPTDPGHFSVLLDVKHFSPEEIAVKVVGEHVEVHARHEERPDEHGFVAREFHRRYRLPPGVDPAAVTSALSPEGVLSIQAAPASAQAPPPAAAK
notes: HSPB6, human, full-length protein with residues 36-40 deleted; source: E. coli NiCo21 (DE3) with pRARE2, purified (subtractive IMAC, anion exchange, SEC); not shown: SUMO, N-terminal, cleaved
stoichiometry N [10]: 2
concentration dependence of apparent MW [5]: 1.8 kDa/(mg/ml)

Continued, in another order:

stoichiometry N (HSPB6 Δ31–40 (human)): 2 subunits
Molecule: HSPB6 Δ31–40 (from UniProt O14558 1-160) (natural protein)

stoichiometry N (HSPB6 Δ31–35 (human) [1]): 2
stoichiometry N (HSPB6 Δ31–35 (human) [2]): 2.2 subunits
Molecule: HSPB6 Δ31–35 (from UniProt O14558 1-160) (natural protein)

percentage protection against DTT-induced aggregation of insulin (A340 after 90 min, 37°C), insulin:sHSP 1:0.2 to 1:0.05 [4]: ~50 % decrease
B1: HSPB6 Δ11–20 (natural protein, human, UniProt O14558 1-160, looked up)
chain: MEIPVPVQPSGLSAPGRLFDQRFGEGLLEAELAALCPTTLAPYYLRAPSVALPVAQVPTDPGHFSVLLDVKHFSPEEIAVKVVGEHVEVHARHEERPDEHGFVAREFHRRYRLPPGVDPAAVTSALSPEGVLSIQAAPASAQAPPPAAAK
notes: HSPB6, human, full-length protein with residues 11-20 deleted; also called ΔN11–20; source: E. coli NiCo21 (DE3) with pRARE2, purified (subtractive IMAC, anion exchange, SEC); not shown: SUMO, N-terminal, cleaved
stoichiometry N [3]: 1.8 subunits
concentration dependence of apparent MW [5]: 0.81 kDa/(mg/ml)

percentage protection against DTT-induced aggregation of insulin (A340 after 90 min, 37°C), insulin:sHSP 1:0.2 to 1:0.05 [4]: ~50 % decrease
B2: HSPB6 Δ21–30 (natural protein, human, UniProt O14558 1-160, looked up)
chain: B1 chain with G11W, S13R, A14R, P15A, G16S, R17A, L18P, F19L, D20P
notes: HSPB6, human, full-length protein with residues 21-30 deleted; source: E. coli NiCo21 (DE3) with pRARE2, purified (subtractive IMAC, anion exchange, SEC); not shown: SUMO, N-terminal, cleaved
stoichiometry N [3]: 2.2 subunits
concentration dependence of apparent MW [5]: 1.29 kDa/(mg/ml)

percentage protection against DTT-induced aggregation of insulin (A340 after 90 min, 37°C), insulin:sHSP 1:0.2 to 1:0.05 [4]: ~50 % decrease
B3: HSPB6 Δ41–50 (natural protein, human, UniProt O14558 1-160, looked up)
chain: MEIPVPVQPSWLRRASAPLPGLSAPGRLFDQRFGEGLLEAAPYYLRAPSVALPVAQVPTDPGHFSVLLDVKHFSPEEIAVKVVGEHVEVHARHEERPDEHGFVAREFHRRYRLPPGVDPAAVTSALSPEGVLSIQAAPASAQAPPPAAAK
notes: HSPB6, human, full-length protein with residues 41-50 deleted; source: E. coli NiCo21 (DE3) with pRARE2, purified (subtractive IMAC, anion exchange, SEC); not shown: SUMO, N-terminal, cleaved
stoichiometry N [3]: 2.3 subunits
concentration dependence of apparent MW [5]: 1.92 kDa/(mg/ml)

percentage protection against DTT-induced aggregation of insulin (A340 after 90 min, 37°C), insulin:sHSP 1:0.2 to 1:0.05 [4]: ~50 % decrease
B4: HSPB6 Δ51–60 (natural protein, human, UniProt O14558 1-160, looked up)
chain: B5 chain with P52L, Y53P, Y54V, L55A, R56Q, A57V, S59T, V60D
notes: HSPB6, human, full-length protein with residues 51-60 deleted; source: E. coli NiCo21 (DE3) with pRARE2, purified (subtractive IMAC, anion exchange, SEC); not shown: SUMO, N-terminal, cleaved
stoichiometry N [3]: 1.9 subunits
concentration dependence of apparent MW [5]: 0.31 kDa/(mg/ml)

concentration dependence of apparent MW [6]: 1.51 kDa/(mg/ml)
stoichiometry N [7]: 2.2 subunits
stoichiometry N [8]: 2
B7: human HSPB6, wild type, full length, O14558 1-160 (natural protein)
chain: T1 chain
